In US20190062448A1, “ANTI-CD39 ANTIBODIES, COMPOSITIONS COMPRISING ANTI-CD39 ANTIBODIES AND METHODS OF USING ANTI-CD39 ANTIBODIES” (Tizona Therapeutics, priority 2017, published 2019):
“Also recorded” adds a separate entry of the source.

What was measured:
[1] = tested on: CD4^+ and CD8^+ T cells in stimulated PBMCs; experiment: Proliferation of anti-CD3+anti-CD28 stimulated T cells (Cell Trace Violet); type: cell-based, human; details: 50 μM ATP; 96 hours; vs isotype control
Protocol: Proliferation of CD4^+ and CD8^+ T cells was measured by Cell Trace Violet by flow cytometry.

[2] = tested on: CD39^+CD73^+SK-MEL-28 cells; experiment: Adenosine generation by SK-MEL-28 cells (LC/MS); type: cell-based, human; details: normalized to isotype control (100%) and CD39 KO cells (0%)
Protocol: (§1) The supernatants were analyzed for ATP levels using AmpGlo Kit (A) and for adenosine levels using LC/MS analysis (B). % Adenosine levels were normalized to isotype control (100%) and SK-MEL-28 CD39 KO cells (0%).

[3] = tested on: CD39^+CD73^+SK-MEL-28 cells; experiment: Extracellular ATP accumulation in SK-MEL-28 supernatants (AmpGlo Kit); type: cell-based, human; details: 1 hour treatment; 50 μM ATP for 15 min
Protocol: as §1

hCD39-ECD = target: T1, hCD39-ECD (Homo sapiens, UniProt P49961); experiment: Epitope binning / competition for hCD39-ECD binding by Bio-Layer Interferometry
T1 sequence (P49961 38-478 limits assumed): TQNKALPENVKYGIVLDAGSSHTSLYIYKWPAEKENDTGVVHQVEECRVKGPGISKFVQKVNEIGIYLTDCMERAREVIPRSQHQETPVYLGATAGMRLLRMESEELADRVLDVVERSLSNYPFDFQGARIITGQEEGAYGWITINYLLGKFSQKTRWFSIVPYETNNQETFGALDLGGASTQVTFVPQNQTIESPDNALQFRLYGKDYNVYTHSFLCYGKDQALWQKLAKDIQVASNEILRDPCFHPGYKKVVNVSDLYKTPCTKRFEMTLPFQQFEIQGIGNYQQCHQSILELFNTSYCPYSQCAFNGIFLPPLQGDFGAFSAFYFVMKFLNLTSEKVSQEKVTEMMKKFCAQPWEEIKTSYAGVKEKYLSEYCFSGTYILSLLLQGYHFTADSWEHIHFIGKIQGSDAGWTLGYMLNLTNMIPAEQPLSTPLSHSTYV
From the text: A1 antibody was immobilized onto an Anti-Mouse IgG Fc Capture (AMC) biosensor (ForteBio). Association of hCD39-ECD was then monitored for 180 seconds via Bio-Layer Interferometry (BLI) using the Octet system (ForteBio), at which point the biosensor was dipped into competitor antibody and monitored for another 180 seconds.
The methods are the same as set forth above except that instead of A1, the representative antibody was immobilized using anti-human IgG Fc Capture (AHC) biosensor.
Also, an 18 hour incubation was used with the antibody or isotype control. Finally, an additional 30 second baseline dip in buffer between antigen capture and dipping into a second competitor antibody for 300 seconds was used.

[4] = target: T2, human-mouse CD39 chimeras (Homo sapiens, UniProt P49961, D150A/E143Q/E153S/L144S/N158S/R147E/R154T/S157K/V151A); experiment: Binding to human-mouse CD39 chimeras and point mutants expressed in CHO cells (FACS); details: 15 μg/ml antibody
T2 construct: expressed in transfected cells; host or cells: CHO cells
T2 sequence (P49961 1-510 E143Q/L144S/R147E/D150A/V151A/E153S/R154T/S157K/N158S): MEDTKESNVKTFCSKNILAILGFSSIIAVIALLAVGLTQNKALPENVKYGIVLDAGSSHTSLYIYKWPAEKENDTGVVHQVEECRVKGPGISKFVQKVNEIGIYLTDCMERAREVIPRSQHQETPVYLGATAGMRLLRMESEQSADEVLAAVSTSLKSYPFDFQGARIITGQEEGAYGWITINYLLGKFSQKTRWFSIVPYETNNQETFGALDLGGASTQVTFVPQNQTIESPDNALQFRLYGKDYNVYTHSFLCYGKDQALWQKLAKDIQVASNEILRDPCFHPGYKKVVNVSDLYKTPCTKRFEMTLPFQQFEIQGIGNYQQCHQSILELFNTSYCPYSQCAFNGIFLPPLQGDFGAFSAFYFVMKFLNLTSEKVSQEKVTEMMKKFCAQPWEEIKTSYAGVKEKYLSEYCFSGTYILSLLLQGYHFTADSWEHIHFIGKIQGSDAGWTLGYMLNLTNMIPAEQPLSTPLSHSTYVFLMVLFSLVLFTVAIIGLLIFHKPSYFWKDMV
Protocol: (§2) Chimeras were generated by replacing human CD39 with mouse CD39 sequence in mammalian expression vectors. The chimeras were expressed in CHO cells and the ability of anti-human CD39 antibodies to bind the chimeras tested via FACS. In brief, cells were washed and blocked in FACS buffer (PBS/2% FBS) for 30 min on ice. They were then incubated with 15 μg/ml anti-human CD39 antibodies diluted in FACS buffer×1 h on ice. After 2 washes, cells were incubated with fluorescently labeled anti-human Fc antibodies, anti-mouse Fc antibodies, or anti-mCD39 antibody (R&D Systems 495826) diluted in FACS buffer per manufacturers' instructions×30 min on ice. After 2 washes, cells were resuspended in FACS buffer and analyzed on BD Fortessa. Data was processed with FlowJo. Positive binding was scored as “yes” and lack of binding was scored as “NO” and examples of FACS plots used to generate this table are in FIGS. 14.F and 14.G.
(§3) Chimeras were generated by mutagenesis of Chimera #2 or WT hCD39 expression vectors. Residues for mutagenesis were chosen based on divergence between human and mouse CD39. The chimeras were expressed in CHO cells and the ability of anti-human CD39 antibodies to bind the chimeras tested via FACS, as described in FIG. 14E. Table 2. Positive binding was scored as “Yes” and lack of binding was scored as “No” and examples of FACS plots used to generate this table are in FIGS. 14.F and 14.G.

[5] = target: T3, human-mouse CD39 chimeras (Homo sapiens, UniProt P49961, E276G/I277V/N275G); experiment: as above; details: 15 μg/ml antibody
T3 construct: expressed in transfected cells; host or cells: CHO cells
T3 sequence (P49961 1-510 N275G/E276G/I277V): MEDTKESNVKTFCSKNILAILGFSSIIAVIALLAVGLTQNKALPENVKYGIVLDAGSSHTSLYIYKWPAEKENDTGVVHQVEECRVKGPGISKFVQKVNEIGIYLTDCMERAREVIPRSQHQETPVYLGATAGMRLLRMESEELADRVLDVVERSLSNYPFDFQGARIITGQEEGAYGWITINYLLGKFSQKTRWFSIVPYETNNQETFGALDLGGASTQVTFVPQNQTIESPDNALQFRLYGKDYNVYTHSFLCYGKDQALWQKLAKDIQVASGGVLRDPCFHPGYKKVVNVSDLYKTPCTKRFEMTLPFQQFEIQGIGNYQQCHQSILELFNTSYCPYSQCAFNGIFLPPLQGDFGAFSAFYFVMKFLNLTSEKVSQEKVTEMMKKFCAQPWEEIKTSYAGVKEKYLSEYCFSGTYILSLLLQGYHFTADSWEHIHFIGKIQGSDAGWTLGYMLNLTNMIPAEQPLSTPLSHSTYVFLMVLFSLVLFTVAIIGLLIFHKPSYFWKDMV
Protocol: as §2, §3

[6] = tested on: human-mouse CD39 chimeras; experiment: as above
Protocol: as §2, §3

stimulated human PBMCs = experiment: Cytokine secretion by anti-CD3+anti-CD28 stimulated PBMCs (Meso Scale Discovery); type: cell-based; details: 96 hours
Protocol: Supernatants were harvested after 96 hours and cytokines were measured using a Meso Scale Discovery human cytokine kit.
Supernatants were harvested after 96 hours and analyzed by Meso Scale Discovery human cytokine kit.

- binding to Chimera #4 [5]: able to bind all chimeras but Chimera #2
B1: 31895: inhibitory anti-CD39 antibody, contacts E143-N158 incl. D150 and E153 (antibody, V domains shown)
VH: QVQLVQSGAEVKKPGASVKVSCKASGYTFKSYEMHWVRQAPGQGLEWMGRINPSVGSTWYAQKFQGRVTMTRDTSTSTVYMELSSLRSEDTAVYYCARGKREGGTEYLRKWGQGTLVTVSS
VL: EIVLTQSPGTLSLSPGERATLSCRASQSVASSYLAWYQQKPGQAPRLLIYGASNRHTGIPDRFSGSGSGTDFTLTISRLEPEDFAVYYCQQYHNAITFGGGTKVEIK
modifications: Synthetic VH, 31895; Synthetic VL, 31895
notes: D150 and E153
- % CD4^+ T cell proliferation [1]: increases proliferation
- % CD8^+ T cell proliferation [1]: increases proliferation
- adenosine generation (% of adenosine levels) [2]: Reduces Adenosine Generation
- extracellular ATP accumulation [3]: Increase Extracellular ATP Accumulation
- competition / binning with other anti-CD39 antibody bin groups for ECD binding (hCD39-ECD): do not bin with anti-CD39 antibody bin groups represented by antibodies A1, 27536, or 27549
- binding to Chimera #2 (human E143-N158 replaced by mouse sequence) [4]: able to bind all chimeras but Chimera #2; also recorded: inability to recognize Chimera #2
- binding to Chimera #9,10 (single residues of Chimera #2 reverted to human) [6]: restore the ability
- binding to Chimeras #13,14 (two human residues co-mutated to mouse) [6]: did not impair binding
- secretion of INF-γ, TNF-α and IL-2 (stimulated human PBMCs; absence of exogenous ATP): increases cytokine secretion
- release of INF-γ, TNF-α, IL-2 and IL-1β (stimulated human PBMCs; fixed concentration of 50 μg/ml, presence of ATP, compared to HAO-391 and HAO mAb4): increased cytokine release by activated PBMCs to a higher degree
- secretion of INF-γ, TNF-α and IL-2 (stimulated human PBMCs; presence of exogenous ATP (50 μM)): increases cytokine secretion
